Reference: PMC3579138
Blank lines part the entries; values can stand above or below the substance they belong to.

Assays:
[1] = target: K63-polyubiquitinated Sic1 (UniProt P38634)
[2] = target: K48-linked tetraubiquitin (Homo sapiens) (UniProt P0CG48); conditions: cited from earlier work
[3] = target: K63-linked tetraubiquitin (Homo sapiens) (UniProt P0CG48); conditions: cited from earlier work
[4] = target: K63-polyubiquitinated Nedd4 (resin-bound GST-Nedd4, autoubiquitinated) (UniProt P46934); experiment: pull-down
Chain of K63-polyubiquitinated Nedd4 (resin-bound GST-Nedd4, autoubiquitinated) (P46934 whole entry): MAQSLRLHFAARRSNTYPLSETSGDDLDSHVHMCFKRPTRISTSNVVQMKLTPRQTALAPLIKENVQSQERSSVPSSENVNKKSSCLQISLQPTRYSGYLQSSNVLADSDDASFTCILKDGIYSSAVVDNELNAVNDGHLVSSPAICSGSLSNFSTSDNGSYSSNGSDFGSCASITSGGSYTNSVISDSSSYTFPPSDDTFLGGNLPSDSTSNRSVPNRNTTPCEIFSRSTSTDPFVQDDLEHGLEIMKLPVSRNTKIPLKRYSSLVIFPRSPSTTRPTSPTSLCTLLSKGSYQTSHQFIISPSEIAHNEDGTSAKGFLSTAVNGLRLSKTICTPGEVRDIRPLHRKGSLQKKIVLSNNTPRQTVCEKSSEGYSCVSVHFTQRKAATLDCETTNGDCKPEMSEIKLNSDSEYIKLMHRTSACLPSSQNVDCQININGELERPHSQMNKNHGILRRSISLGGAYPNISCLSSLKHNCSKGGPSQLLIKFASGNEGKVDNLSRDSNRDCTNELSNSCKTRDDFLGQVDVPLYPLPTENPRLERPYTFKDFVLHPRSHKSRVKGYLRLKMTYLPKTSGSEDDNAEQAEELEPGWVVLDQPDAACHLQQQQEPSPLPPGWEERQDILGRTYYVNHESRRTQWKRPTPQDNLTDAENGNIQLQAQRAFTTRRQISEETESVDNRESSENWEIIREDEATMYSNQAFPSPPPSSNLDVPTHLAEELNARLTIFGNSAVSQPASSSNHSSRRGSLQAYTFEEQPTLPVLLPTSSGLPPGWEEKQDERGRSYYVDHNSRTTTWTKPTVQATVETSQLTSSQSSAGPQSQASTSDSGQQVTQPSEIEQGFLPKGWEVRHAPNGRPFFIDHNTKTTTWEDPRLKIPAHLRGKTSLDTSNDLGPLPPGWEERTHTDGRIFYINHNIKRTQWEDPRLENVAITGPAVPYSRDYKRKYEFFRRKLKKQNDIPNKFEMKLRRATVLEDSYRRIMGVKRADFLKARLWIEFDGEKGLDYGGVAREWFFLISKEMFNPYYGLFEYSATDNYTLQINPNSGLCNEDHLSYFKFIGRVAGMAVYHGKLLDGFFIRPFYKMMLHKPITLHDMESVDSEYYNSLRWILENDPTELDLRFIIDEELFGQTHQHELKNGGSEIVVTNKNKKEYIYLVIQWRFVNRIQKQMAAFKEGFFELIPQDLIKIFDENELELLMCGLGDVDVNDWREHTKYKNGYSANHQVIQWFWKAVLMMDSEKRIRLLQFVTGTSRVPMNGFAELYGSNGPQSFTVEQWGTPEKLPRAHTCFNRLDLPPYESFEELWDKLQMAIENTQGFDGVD

Chain of hHR23A UBA2 (P54725 315-361): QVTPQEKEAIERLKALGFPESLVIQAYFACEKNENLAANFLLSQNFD
Chain of Hrs, purified recombinant (O14964 whole entry): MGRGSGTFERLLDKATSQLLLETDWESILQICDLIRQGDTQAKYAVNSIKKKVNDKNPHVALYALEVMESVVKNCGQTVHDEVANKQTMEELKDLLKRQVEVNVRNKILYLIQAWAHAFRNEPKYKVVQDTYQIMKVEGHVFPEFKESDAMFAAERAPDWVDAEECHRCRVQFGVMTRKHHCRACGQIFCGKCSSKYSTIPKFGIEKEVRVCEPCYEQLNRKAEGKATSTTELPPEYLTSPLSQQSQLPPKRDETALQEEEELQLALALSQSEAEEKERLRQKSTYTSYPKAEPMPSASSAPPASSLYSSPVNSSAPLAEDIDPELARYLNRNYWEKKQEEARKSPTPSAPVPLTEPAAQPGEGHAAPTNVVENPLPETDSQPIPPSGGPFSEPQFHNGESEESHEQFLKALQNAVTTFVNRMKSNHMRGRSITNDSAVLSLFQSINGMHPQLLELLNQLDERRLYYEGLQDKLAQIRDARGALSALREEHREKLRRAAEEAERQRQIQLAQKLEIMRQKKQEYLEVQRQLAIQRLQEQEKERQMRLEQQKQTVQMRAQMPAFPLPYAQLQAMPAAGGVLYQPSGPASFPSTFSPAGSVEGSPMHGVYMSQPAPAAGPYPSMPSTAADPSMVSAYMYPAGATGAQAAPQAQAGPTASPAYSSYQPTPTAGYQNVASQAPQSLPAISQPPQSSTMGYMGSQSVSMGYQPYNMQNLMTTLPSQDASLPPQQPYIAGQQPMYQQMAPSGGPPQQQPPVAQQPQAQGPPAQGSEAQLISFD

percent decrease of conjugate binding to proteasomes at 80nM [1]: 80%
Substance: Hrs, purified recombinant (from UniProt O14964 1-777) (natural protein)

Substance: hHR23A UBA2 (from UniProt P54725)
Kd [2]: 8 µM
Kd [3]: 28 µM

percent binding with lysate of cells with Hrs and STAM knocked down [4]: 35%
percent binding with lysate of control cells [4]: 19%
percent reduction of binding by the cell extract [4]: < 80%
Substance: 26S proteasomes purified from rabbit muscle (complex)
